Measurements reported in patent publication US20230136228A1.

How the values were obtained:
human CEACAM6 (human) [1] = target: human CEACAM6 (human) (UniProt P40199); assay: flow cytometry, transfected PEAK cells, equimolar to 10 mcg/ml full-size antibody
human CEACAM4 (human) [2] = target: human CEACAM4 (human) (UniProt O75871); assay: as above
[3] = target: human CEACAM5 (carcinoembryonic antigen, CEA), cell surface (human) (UniProt P06731); assay: as above
human CEACAM1 (human) [4] = target: human CEACAM1 (human) (UniProt P13688); assay: as above
human CEACAM3 (human) [5] = target: human CEACAM3 (human) (UniProt P40198); assay: as above
human CEACAM8 (human) [6] = target: human CEACAM8 (human) (UniProt P31997); assay: as above
human CEACAM6 (human) [7] = target: human CEACAM6 (human) (UniProt P40199); assay: flow cytometry, MFI on transfected PEAK cells divided by MFI on WT PEAK cells
human CEACAM4 (human) [8] = target: human CEACAM4 (human) (UniProt O75871); assay: as above
[9] = target: human CEACAM5 (carcinoembryonic antigen, CEA), cell surface (human) (UniProt P06731); assay: as above
human CEACAM1 (human) [10] = target: human CEACAM1 (human) (UniProt P13688); assay: as above
human CEACAM3 (human) [11] = target: human CEACAM3 (human) (UniProt P40198); assay: as above
human CEACAM8 (human) [12] = target: human CEACAM8 (human) (UniProt P31997); assay: as above

human CEACAM6 (human), sequence (P40199 35-320): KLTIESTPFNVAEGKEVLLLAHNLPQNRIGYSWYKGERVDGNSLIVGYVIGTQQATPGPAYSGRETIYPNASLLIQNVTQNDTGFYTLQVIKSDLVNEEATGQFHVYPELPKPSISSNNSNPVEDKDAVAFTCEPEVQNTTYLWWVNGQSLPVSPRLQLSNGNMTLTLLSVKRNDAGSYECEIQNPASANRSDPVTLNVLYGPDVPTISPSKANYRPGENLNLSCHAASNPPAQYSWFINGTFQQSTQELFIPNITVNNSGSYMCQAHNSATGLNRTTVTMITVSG
human CEACAM1 (human), sequence (P13688 35-526): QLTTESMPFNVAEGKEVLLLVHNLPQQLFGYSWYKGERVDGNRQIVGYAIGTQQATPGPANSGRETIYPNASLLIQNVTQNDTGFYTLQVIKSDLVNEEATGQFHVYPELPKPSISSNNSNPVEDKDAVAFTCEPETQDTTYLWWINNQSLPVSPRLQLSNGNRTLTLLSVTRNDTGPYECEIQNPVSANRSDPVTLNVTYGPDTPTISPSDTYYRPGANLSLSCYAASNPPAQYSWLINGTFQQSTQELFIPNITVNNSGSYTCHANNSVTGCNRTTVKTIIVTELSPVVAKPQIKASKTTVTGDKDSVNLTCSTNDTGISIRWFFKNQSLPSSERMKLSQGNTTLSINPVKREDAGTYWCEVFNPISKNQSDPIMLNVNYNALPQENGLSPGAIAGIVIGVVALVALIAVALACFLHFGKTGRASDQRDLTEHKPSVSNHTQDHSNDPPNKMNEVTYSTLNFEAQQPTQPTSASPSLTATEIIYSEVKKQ
human CEACAM5 (carcinoembryonic antigen, CEA), cell surface (human), sequence (P06731 35-685 limits assumed): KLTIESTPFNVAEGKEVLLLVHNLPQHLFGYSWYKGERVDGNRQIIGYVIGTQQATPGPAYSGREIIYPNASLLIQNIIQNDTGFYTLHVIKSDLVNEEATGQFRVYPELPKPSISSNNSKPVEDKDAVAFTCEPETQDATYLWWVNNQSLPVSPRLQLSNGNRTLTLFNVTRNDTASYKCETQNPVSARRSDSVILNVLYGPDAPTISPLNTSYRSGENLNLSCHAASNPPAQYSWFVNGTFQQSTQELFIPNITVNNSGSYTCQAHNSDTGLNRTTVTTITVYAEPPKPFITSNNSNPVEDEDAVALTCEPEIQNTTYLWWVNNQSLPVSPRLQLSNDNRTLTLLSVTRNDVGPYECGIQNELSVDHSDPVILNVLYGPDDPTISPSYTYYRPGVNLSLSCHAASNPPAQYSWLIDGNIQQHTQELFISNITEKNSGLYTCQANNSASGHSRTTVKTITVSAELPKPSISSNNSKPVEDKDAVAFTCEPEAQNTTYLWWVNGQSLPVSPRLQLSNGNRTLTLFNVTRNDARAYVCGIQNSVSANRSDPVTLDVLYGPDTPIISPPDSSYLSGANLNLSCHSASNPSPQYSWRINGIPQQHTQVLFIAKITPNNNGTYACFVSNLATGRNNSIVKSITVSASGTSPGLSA
human CEACAM4 (human), sequence (O75871 36-244): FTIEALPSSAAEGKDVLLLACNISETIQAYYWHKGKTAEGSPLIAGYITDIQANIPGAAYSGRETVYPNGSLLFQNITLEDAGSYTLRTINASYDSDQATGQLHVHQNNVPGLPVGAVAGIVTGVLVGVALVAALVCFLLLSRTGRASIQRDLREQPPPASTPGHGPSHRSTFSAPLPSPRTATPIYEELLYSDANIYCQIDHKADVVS
human CEACAM8 (human), sequence (P31997 35-320): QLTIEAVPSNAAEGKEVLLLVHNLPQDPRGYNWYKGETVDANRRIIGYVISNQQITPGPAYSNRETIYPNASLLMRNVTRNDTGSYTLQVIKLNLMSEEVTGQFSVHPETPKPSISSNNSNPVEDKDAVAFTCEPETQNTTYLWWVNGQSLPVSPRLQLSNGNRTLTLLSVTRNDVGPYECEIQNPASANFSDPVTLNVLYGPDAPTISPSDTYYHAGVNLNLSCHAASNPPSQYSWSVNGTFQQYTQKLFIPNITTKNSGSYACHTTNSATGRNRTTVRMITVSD
human CEACAM3 (human), sequence (P40198 35-252): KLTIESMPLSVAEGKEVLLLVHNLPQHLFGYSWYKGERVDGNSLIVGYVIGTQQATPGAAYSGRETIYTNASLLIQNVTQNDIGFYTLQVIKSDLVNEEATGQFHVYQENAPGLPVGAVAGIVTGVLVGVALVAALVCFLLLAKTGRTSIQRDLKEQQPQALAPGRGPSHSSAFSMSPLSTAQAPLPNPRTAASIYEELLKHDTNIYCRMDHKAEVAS

MFI (human CEACAM6 (human) [1]): 1830 MFI
MFI (human CEACAM4 (human) [2]): 1340 MFI
MFI [3]: 18400 MFI
MFI (human CEACAM1 (human) [4]): 1470 MFI
MFI (human CEACAM3 (human) [5]): 943 MFI
MFI (human CEACAM8 (human) [6]): 24000 MFI
Factor to PEAK WT (human CEACAM6 (human) [7]): 1.6 fold
Factor to PEAK WT (human CEACAM4 (human) [8]): 1.1 fold
Factor to PEAK WT [9]: 15.7 fold
Factor to PEAK WT (human CEACAM1 (human) [10]): 1.2 fold
Factor to PEAK WT (human CEACAM3 (human) [11]): 0.8 fold
Factor to PEAK WT (human CEACAM8 (human) [12]): 20.4 fold
Substance: MEDI-565 BiTE (bispecific antibody)
